According to patent US20260317437 (published 2026):
Positions count from the first letter of the chain named. Numbers in names are those of the source. Values belong to the binder of their own block, whether it stands above or below them.

Target: GCGR extracellular domain (human, UniProt P47871)
Assay: SPR

Sequence of GCGR extracellular domain (P47871 26-477): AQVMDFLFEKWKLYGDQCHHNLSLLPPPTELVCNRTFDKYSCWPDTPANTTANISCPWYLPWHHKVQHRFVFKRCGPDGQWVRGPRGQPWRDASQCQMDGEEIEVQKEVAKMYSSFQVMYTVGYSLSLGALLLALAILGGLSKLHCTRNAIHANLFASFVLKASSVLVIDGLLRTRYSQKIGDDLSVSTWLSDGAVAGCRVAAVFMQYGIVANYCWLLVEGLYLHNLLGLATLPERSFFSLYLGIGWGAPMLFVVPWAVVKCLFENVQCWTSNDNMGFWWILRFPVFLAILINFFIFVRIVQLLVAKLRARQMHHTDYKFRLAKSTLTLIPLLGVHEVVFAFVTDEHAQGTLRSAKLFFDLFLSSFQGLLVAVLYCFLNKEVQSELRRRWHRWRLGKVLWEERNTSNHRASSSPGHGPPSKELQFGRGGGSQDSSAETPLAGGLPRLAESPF

Kd: 23.4 nM
B1: VH Y30Q (antibody, V domains shown)
VH: EVQLVESGGGLVQPGGSLRLSCAASGFNIQYNYIHWVRQAPGKGLEWVAEFSPYSGSTYYADSVKGRFTISADTSKNTAYLQMNSLRAEDTAVYYCARSAAIVDWYDYFKGFDYWGQGTLVTVSS
VL: DIQMTQSPSSLSASVGDRVTITCRASQSVSSAVAWYQQKPGKAPKLLIYSASSLYSGVPSRFSGSRSGTDFTLTISSLQPEDFATYYCQQYGSYLYTFGQGTKVEIK

Kd: 2.55 nM
B2: VL Y94W (antibody, V domains shown)
VH: B1 VH with Q30Y
VL: B1 VL with Y94W

Kd: 406 nM
B3: VH Y31V (antibody, V domains shown)
VH: B1 VH with Q30Y, Y31V
VL: B1 VL

Kd: 3.54 nM
B4: VH Y100bA (antibody, V domains shown)
VH: B1 VH with Q30Y, Y106A
VL: B1 VL

Kd: 2.08 nM
B5: VL Y91K (antibody, V domains shown)
VH: B1 VH with Q30Y
VL: B1 VL with Y91K

Kd: 17.3 nM
B6: VH V99K (antibody, V domains shown)
VH: B1 VH with Q30Y, V103K
VL: B1 VL

Kd: 110 nM
B7: VH Y30R (antibody, V domains shown)
VH: B1 VH with Q30R
VL: B1 VL

Kd: 6.44 nM
B8: VH Y30W (antibody, V domains shown)
VH: B1 VH with Q30W
VL: B1 VL

Kd: 6.68 nM
B9: VH Y30V (antibody, V domains shown)
VH: B1 VH with Q30V
VL: B1 VL

Kd: 2.36 nM
B10: VL Y91Q (antibody, V domains shown)
VH: B1 VH with Q30Y
VL: B1 VL with Y91Q

Kd: 0.968 nM
B11: VL S93E (antibody, V domains shown)
VH: B1 VH with Q30Y
VL: B1 VL with S93E

Kd: 2.91 nM
B12: VL S93K (antibody, V domains shown)
VH: B1 VH with Q30Y
VL: B1 VL with S93K

Kd: 1.3 nM
B13: VL S93D (antibody, V domains shown)
VH: B1 VH with Q30Y
VL: B1 VL with S93D

Kd: 1.08 nM
B14: VH Y100bV (antibody, V domains shown)
VH: B1 VH with Q30Y, Y106V
VL: B1 VL

Kd: 0.962 nM
B15: VL S93N (antibody, V domains shown)
VH: B1 VH with Q30Y
VL: B1 VL with S93N

Kd: 1.69 nM
B16: VL Y91F (antibody, V domains shown)
VH: B1 VH with Q30Y
VL: B1 VL with Y91F

Kd: 1.23 nM
B17: VH Y30F (antibody, V domains shown)
VH: B1 VH with Q30F
VL: B1 VL

Kd: 2.31 nM
B18: VL Y91S (antibody, V domains shown)
VH: B1 VH with Q30Y
VL: B1 VL with Y91S
